What is called stoichiometry N is the number of molecules, sites or subunits per partner or assembly.

The data set deals with the molecule itself. The data set is described as follows: SEC. Background: Size exclusion chromatography separates by hydrodynamic size, large species first.

B1: APOBEC3B carboxy-terminal domain 193-CTD (Met-193 to the carboxy-terminal end) (domain or fragment)
chain: not shown
As to B1, the “stoichiometry N” value was found to be 2.

Values taken from paper PMC4579057 (Journal of molecular biology, 2015).
